Data as given in patent US7541183B2, “Growth and differentiation of adult muscle stem cells with activators or inhibitors of Wnt signaling” (Ottawa Health Research Institute, priority 2003, dated 2009).

How the values were obtained:
[1] = tested on: CD45+:Sca1+ muscle cells; assay type: cell-based
Protocol: Mononuclear cells were washed twice with DMEM supplemented with 5% FBS, and suspended at a concentration of 2−3×10^6 cells/ml. […] Primary antibodies were diluted at 1:200, and Streptavidin Tri-Color Conjugate was diluted 1:1000. After two washes with DMEM at 4° C., cells were separated on a MoFlo cytometer (DakoCytomation), equipped with 3 lasers. Sort gates were strictly defined based on isotype control stained cells and single antibody staining. Dead cells and debris were excluded by gating on forward and side scatter profiles. Sorting was performed using single cell mode to achieve the highest possible purity. The purity of sorted populations was routinely >98%.
Primary myoblasts were isolated from hind limb muscle of 3-week old Balb/c mice, and maintained in HAM's F-10 medium (Invitrogen) supplemented with 20% FBS, and 2.5 ng/ml bFGF (Invitrogen).
For co-culture experiments, primary myoblasts or Wnt-expressing cells were mixed with purified CD45^+:Sca1^+ cells at a ratio of 1:1, and seeded on Collagen-coated 2-well Permanox Chamber Slides (Lab-Tek). The density was 2×10^4 cells/chamber for co-culture in growth conditions, and 4×10^4 cells/chamber for differentiation experiments. […] Fluoroscein or Rhodamine conjugated antibodies (Chemicon) were used for secondary detection. Cover slides were mounted and analyzed using a Zeiss Axioscop fluorescent microscope.

[2] = tested on: Myf5nLacZ+ satellite cells; assay: Impact of cardiotoxin injection on myogenic progenitors in injured muscle; assay type: in vivo, Myf5nLacZ mice; conditions: 18 hours post-ctx injection
Protocol: For direct analysis of sorted cell populations, cells were washed and suspended in phosphate-buffered saline (PBS), and cytospun onto silanized slides (DAKO). X-gal staining was performed as described previously (Kablar, 1997, Development 124, 4729-4738).
5 to 8 week-old mice were anaesthetised with Halothane gas. 25 μl of 10 μM cardiotoxin (Latoxan) was injected directly into the TA muscle, using a 29 G 1/2 insulin syringe. For cell proliferation assays, 0.3 mg/kg of 5-bromo-deoxyuridine (BrdU, Sigma) was injected intraperitoneally 90 minutes prior to sacrificing animals. Cells that had incorporated BrdU were detected by flow cytometry using a FITC conjugated anti-BrdU antibody (ED Pharmingen). For sFRP experiments, 100 ng of recombinant sFRP 2 and 3 (R&D Systems) were injected into regenerating TA muscle. Control animals received injections of equal volumes of PBS. For analysis of total TA cell populations, 1×10^4 mononuclear cells were plated on collagen-coated chamber slides overnight and then stained with anti-Desmin antibody (DAKO) at 1:200. Donkey anti-mouse FITC (Chemicon) at 1:500 was used for secondary detection.

Row | Substance | increase in CD45+:Sca1+ cell survival ([1]; 100 ng/ml Shh) | myogenic differentiation efficiency of CD45+:Sca1+ cells ([1]; recombinant Shh at 10 or 100 ng/ml, cells alone or in co-culture with myoblasts) | reduction in the number of Myf5nLacZ+ cells relative to uninjured muscle [2] | reduction in the number of Myf5nLacZ+ cells relative to uninjured muscle ([2]; listed as ctx) | number of Myf5nLacZ+ cells ([2]; uninjured muscle 4.1×10^4±1.6×10^4)
1 | Shh: recombinant Sonic Hedgehog (Shh-N, R&D Systems) | 3-4 fold | did not influence |  |  | 
2 | cardiotoxin |  |  | ~30 fold | approximately 30 fold | 1.18×10^3±1×10^3 cells/g tissue
